Source: PMC6130075, “Engineering of 3-ketosteroid-∆^1-dehydrogenase based site-directed saturation mutagenesis for efficient biotransformation of steroidal substrates” (Microbial Cell Factories, 2018)
Changes are numbered by the printed parent chain. Names may count otherwise.

B1: KsdD3 (3-ketosteroid-∆^1-dehydrogenase) (Pimelobacter simplex; W299A) (protein)
chain: MDWAEEYDVLVAGSGAGGMAGTYTAAREGLSVCLVEAGDKFGGTTAYSGGGGAWFPANPVLLRAGTDDTIEDALEYYRAVVGDRTPADLQETYVRGGAGLVAYLEEDDHFSFESYPWPDYFGDAPKARRDGQRHIIPTPLPVPSAPELREVVRGPLDNDRLGTPQPDDLFIGGRALVARFLTALATYPHATLVRETALAELVVEDGVVVGAIVETDGVRRAIRARRGVLLAAGGFEANDELRQKYGVPGVARDTMGPPTNVGAAHQAAIAVGADTDLMGEAWWSPGLTHPDGRSAFALAFTGGIFVDGAGRRFVNESAPYDRLGRAVIDHLTEGGVTPRYWMVYDHKEGSIPPVRATNVSMVDEEQYVAAGLWHTADTLPELAALIGVPADALVATVARFNELVADGYDADFGRGGEAYDRFFSGGEPPLVSIDEGPFHAAAFGISDLGTKGGLRTDTSARVLTADGTPIGGLYAAGNTMAAPSGTTYPGGGNPIGTSMLFSHLAVRHMGTEDAR
notes: full-length, N-terminal His6 tag (pET28a NdeI/EcoRI), E. coli BL21(DE3), Ni-NTA purified
B2: KsdD3 (3-ketosteroid-∆^1-dehydrogenase) (Pimelobacter simplex) (protein)
chain: B1 chain with A299W
notes: as for B1
B3: KsdD3 (3-ketosteroid-∆^1-dehydrogenase) (Pimelobacter simplex; W299G) (protein)
chain: B1 chain with A299G

Tests used:
[1] = target: T1, KsdD3 (3-ketosteroid-∆^1-dehydrogenase) (Pimelobacter simplex, UniProt P77815, W299A); assay: PMS/DCPIP reduction at […] nm, Michaelis-Menten fit; assay type: biochemical; conditions: 50 mM Tris-HCl pH 7.5, 30 °C, 1.5 mM PMS, 40 µM DCPIP, 2% methanol
T1 construct: gene KR76_27115; full-length, N-terminal His6 tag (pET28a NdeI/EcoRI), E. coli BL21(DE3), Ni-NTA purified

[2] = target: T2, KsdD3 (3-ketosteroid-∆^1-dehydrogenase) (Pimelobacter simplex, UniProt P77815); assay: PMS/DCPIP reduction at […] nm, Michaelis-Menten fit; assay type: biochemical; conditions: 50 mM Tris-HCl pH 7.5, 30 °C, 1.5 mM PMS, 40 µM DCPIP, 2% methanol
T2 construct: gene KR76_27115; full-length, N-terminal His6 tag (pET28a NdeI/EcoRI), E. coli BL21(DE3), Ni-NTA purified
T2 sequence (P77815 entry or part of it): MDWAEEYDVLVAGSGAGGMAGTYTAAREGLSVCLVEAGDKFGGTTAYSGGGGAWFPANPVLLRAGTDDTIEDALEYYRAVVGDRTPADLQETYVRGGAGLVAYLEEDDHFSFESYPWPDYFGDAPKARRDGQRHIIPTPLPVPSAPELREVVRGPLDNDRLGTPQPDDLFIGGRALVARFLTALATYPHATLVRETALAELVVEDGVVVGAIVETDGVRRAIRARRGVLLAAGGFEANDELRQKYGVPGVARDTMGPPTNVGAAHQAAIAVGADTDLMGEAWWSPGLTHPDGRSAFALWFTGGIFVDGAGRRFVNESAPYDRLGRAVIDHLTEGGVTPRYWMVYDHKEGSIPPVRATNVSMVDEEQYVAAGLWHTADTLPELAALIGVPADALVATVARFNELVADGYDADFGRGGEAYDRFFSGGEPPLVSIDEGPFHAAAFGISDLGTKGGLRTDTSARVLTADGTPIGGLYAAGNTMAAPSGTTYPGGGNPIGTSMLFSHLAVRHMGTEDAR

[3] = substrate: C[C@]12CCC(=O)C=C1CC[C@@H]1[C@@H]2C(=O)C[C@@]2(C)[C@H]1CC[C@]2(O)C(=O)CO; assay: purified protein; conditions: 50 mM Tris-HCl pH 7.5, 30 °C, 1.5 mM PMS, 40 µM DCPIP, 2% methanol
[4] = substrate: C[C@]12CCC(=O)C=C1CC[C@@H]1[C@@H]2CC[C@]2(C)C(=O)CC[C@@H]12; assay: purified protein; assay type: biochemical, Pimelobacter simplex; conditions: pH 7.5; 30.0 °C
[5] = substrate: CC(=O)[C@H]1CC[C@H]2[C@@H]3CCC4=CC(=O)CC[C@]4(C)[C@H]3CC[C@]12C; assay: purified protein; assay type: biochemical, Pimelobacter simplex; conditions: 50 mM Tris-HCl pH 7.5, 30 °C, 1.5 mM PMS, 40 µM DCPIP, 2% methanol
[6] = substrate: CC(=O)[C@@]1(O)CC[C@H]2[C@@H]3CCC4=CC(=O)CC[C@]4(C)[C@H]3C(=O)C[C@@]21C; assay: purified protein; assay type: biochemical, Pimelobacter simplex; conditions: 50 mM Tris-HCl pH 7.5, 30 °C, 1.5 mM PMS, 40 µM DCPIP, 2% methanol
[7] = substrate: CC(=O)[C@@]12O[C@@H]1C[C@H]1[C@@H]3CCC4=CC(=O)CC[C@]4(C)[C@H]3[C@H](O)C[C@@]12C; assay: purified protein; assay type: biochemical, Pimelobacter simplex; conditions: 50 mM Tris-HCl pH 7.5, 30 °C, 1.5 mM PMS, 40 µM DCPIP, 2% methanol
[8] = substrate: C[C@]12CCC(=O)C=C1CC[C@@H]1[C@@H]2CC[C@@]2(C)[C@H]1CC[C@]2(C)O; assay: purified protein; assay type: biochemical, Pimelobacter simplex; conditions: pH 7.5; 30.0 °C
[9] = substrate: C[C@]12CC[C@H]3[C@@H](CCC4=CC(=O)CC[C@@]43C)[C@@H]1CC[C@@H]2O; assay: purified protein; assay type: biochemical, Pimelobacter simplex; conditions: pH 7.5; 30.0 °C
[10] = substrate: CC(=O)OCC(=O)[C@@]1(O)CC[C@H]2[C@@H]3CCC4=CC(=O)CC[C@]4(C)[C@H]3C(=O)C[C@@]21C; assay: purified protein; assay type: biochemical, Pimelobacter simplex; conditions: 50 mM Tris-HCl pH 7.5, 30 °C, 1.5 mM PMS, 40 µM DCPIP, 2% methanol
[11] = substrate: C[C@]12CCC(=O)C=C1CC[C@@H]1[C@@H]2CC[C@]2(C)C(=O)CC[C@@H]12; assay: purified protein; conditions: 50 mM Tris-HCl pH 7.5, 30 °C, 1.5 mM PMS, 40 µM DCPIP, 2% methanol

| Molecule | Km [3] [µM] | kcat [3] [s⁻¹] | kcat/Km [3] [M⁻¹ s⁻¹] | Km [4] [µM] | kcat/Km [4] [M⁻¹ s⁻¹] | Km [5] [µM] | kcat [5] [s⁻¹] | kcat/Km [5] [M⁻¹ s⁻¹] | Km [6] [µM] | kcat [6] [s⁻¹] | kcat/Km [6] [M⁻¹ s⁻¹] | Km [7] [µM] | kcat [7] [s⁻¹] | kcat/Km [7] [M⁻¹ s⁻¹] | Km [8] [µM] | kcat/Km [8] [M⁻¹ s⁻¹] | Km [9] [µM] | kcat/Km [9] [M⁻¹ s⁻¹] | Km [10] [µM] | kcat [10] [s⁻¹] | also measured |
| --- | --- | --- | --- | --- | --- | --- | --- | --- | --- | --- | --- | --- | --- | --- | --- | --- | --- | --- | --- | --- | --- |
| C[C@]12CCC(=O)C=C1CC[C@H]1[C@@H]3CCC(=O)[C@@]3(C)CC[C@@]12O [9α-OH-AD, 9α-hydroxy-4-androstene-3,17-dione] |  |  |  |  |  |  |  |  |  |  |  |  |  |  |  |  |  |  |  |  | Km [1]: 68.5 ± 7 µM; Km [2]: 145 ± 4.4 µM |
| B1 | 42.85 ± 3.3 | 78 | 1.82e+06 | 34.89 ± 2.5 | 3.28e+06 | 40.37 ± 3.7 | 87.1 ± 4.2 | 2.16e+06 | 46.85 ± 0.9 | 62.1 ± 6.1 | 1.32e+06 | 149.15 ± 4.6 | 33.6 ± 2.1 | 230000 | 44.63 ± 2.8 | 1.66e+06 | 33.25 ± 4.2 | 3.7e+06 | 75.93 ± 3.8 | 47.3 ± 1.5 | kcat/Km [10]: 620000 M⁻¹ s⁻¹ |
| B2 | 50.04 ± 2.7 | 59.7 | 1.19e+06 | 47.43 ± 1.9 | 1.29e+06 | 62.31 ± 4.8 | 53.5 ± 4.1 | 860000 | 57.12 ± 2.8 | 55.2 ± 3.7 | 970000 | 228.26 ± 7.1 | 19.2 ± 4.5 | 80000 | 55.35 ± 3.1 | 1.03e+06 | 42.05 ± 4.3 | 1.89e+06 | 95.08 ± 4.7 | 45.3 ± 3.5 | kcat/Km [10]: 480000 M⁻¹ s⁻¹ |
| B3 |  |  |  |  |  |  |  |  |  |  |  |  |  |  |  |  |  |  |  |  | Km [11]: 37.01 ± 1.8 µM; kcat [11]: 101.2 ± 0.9 s⁻¹; kcat/Km [11]: 2.74e+06 M⁻¹ s⁻¹ |
